Assay results reported in publication PMC11995805 (BBA Advances, 2025).

Target: T1, Recombinant FLAG-tagged shroom-2 PDZ domain (1st-110th amino acid) (human, UniProt Q13796 1-110)
T1 sequence (looked up): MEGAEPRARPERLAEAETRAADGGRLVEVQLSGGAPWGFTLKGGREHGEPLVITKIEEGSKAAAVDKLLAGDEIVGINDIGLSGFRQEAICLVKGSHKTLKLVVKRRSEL
Assay: co-IP

- Kd: 3.36 µM
B1: His-tagged peptide of the carboxy terminus of claudin-11, NH2-…-COOH (peptide)
peptide: {H2N-Met-H2N-H2N-H2N-H2N-H2N-H2N}-PTHAKSAHV-OH
SMILES: CSCC[C@H](N)C(=O)N1CCC[C@H]1C(=O)N[C@H](C(=O)N[C@@H](Cc1c[nH]cn1)C(=O)N[C@@H](C)C(=O)N[C@@H](CCCCN)C(=O)N[C@@H](CO)C(=O)N[C@@H](C)C(=O)N[C@@H](Cc1c[nH]cn1)C(=O)N[C@H](C(=O)O)C(C)C)[C@@H](C)O
